{"source": "patent US20240109978A1", "biological_target": "CD19 on NALM-6 cells (CD19+ B lineage, acute lymphoblastic leukemia) (UniProt P15391)", "sequence (P15391 20-556 limits assumed)": "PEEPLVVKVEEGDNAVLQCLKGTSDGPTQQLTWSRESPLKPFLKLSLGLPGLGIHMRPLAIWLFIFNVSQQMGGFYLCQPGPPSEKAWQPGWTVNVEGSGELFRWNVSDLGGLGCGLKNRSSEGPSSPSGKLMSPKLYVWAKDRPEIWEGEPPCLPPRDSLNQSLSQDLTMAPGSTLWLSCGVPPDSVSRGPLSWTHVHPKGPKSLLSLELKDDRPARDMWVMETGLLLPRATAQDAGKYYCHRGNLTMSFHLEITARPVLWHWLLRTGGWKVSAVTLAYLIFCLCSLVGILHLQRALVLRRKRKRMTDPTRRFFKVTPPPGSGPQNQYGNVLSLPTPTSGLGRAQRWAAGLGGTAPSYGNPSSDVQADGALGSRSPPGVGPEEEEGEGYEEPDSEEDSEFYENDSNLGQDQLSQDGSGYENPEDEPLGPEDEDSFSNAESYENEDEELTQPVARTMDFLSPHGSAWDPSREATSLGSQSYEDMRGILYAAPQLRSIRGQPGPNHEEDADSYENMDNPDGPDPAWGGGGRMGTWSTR", "experiment": "cell-based or functional assay"}
{"substance": "IgG1-based CAR (FMC63 scFv, IgG1-CH2-CH3 spacer, CD28 transmembrane and intracellular domains, and CD3zeta-signaling domain) (receptor)", "values": [{"measurement": "killing efficacy against NALM-6 cells, 18 h co-culture, 2:1 (E:T) ratio (luciferase)", "result": 100, "unit": "%"}]}
